Measurements as given in the nanobody polyreactivity screen of Harvey et al. (2022).

Test: yeast display, Sf9 membrane polyspecificity reagent, FACS + sequencing; frameworks hold sequencing errors
Method in brief: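 Galactose-induced (36–48 hours) yeast carrying a synthetic nanobody display library were exposed to 10% biotinylated, detergent-solubilized Sf9 membrane reagent at 4 °C for 1 hour. FACS followed streptavidin microbead enrichment, using low and high (top ~1%) gates for expression (anti-HA) and reagent binding (streptavidin). Colony PCR, MiSeq 2 × 250 sequencing and CDR-length filtering followed. Labels for polyreactivity reflect the gate of origin.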

Row | Sequence | polyreactivity (PSR sort gate)
1 | QVQLVESGGGLVQAGGSLRLSCAASGGTFPLYAMGWYRQAPGKARELVAAIRWSGGRTYYADSVKGRFTISRDNAMKTVYLQMNSLKPEDTAVYYCAADYDDGWGYDYWGQGTQVTVSS | high polyreactivity
2 | QVQLVESGGGLVQAGGSLRLSCAASGGTFPSNAMGWYRQAPGQERELVAAITGSSDTTYYADSVKGRFTISRDNAKNTVYLQMNSLKPEDTAVYYCAADTPRDTNRYEYWGQGTQVTVSS | low polyreactivity
3 | QVQLVESGGGLVQAGGSLRLSCAASGGTFPVYAMGWYRQAPGKERELVAAISYSGVTTYYADSVKGRFTISRDNAKNTVYLQMNSLKPEDTAVYYCNADWRRWYIFSYDYWGQGTQVTVSS | low polyreactivity
4 | QVQLVESGGGLVQAGGSLRLSCAASGGTFPYNAMGWYRQAPGTERELVAVITSGDGTYYADSVKGRFTNSRDNAKNTVYLQMNSLKPEDTAVDYCAAVIFWDVPYDYWGQGTQVTVSS | low polyreactivity
5 | QVQLVESGGGLVQAGGSLRLSCAASGGTFRAYAMGWYRQAPGKEREFVAAITWSGGRTYYADSVKGRFTISRDNANNTVYLQMNSLKPEDTEVYYCATDQGHYYHAEHDYWGQGTKVTVSS | low polyreactivity
6 | QVQLVESGGGLVQAGGSLRLSCAASGGTFRGYVMGWYIQAPGKERELVAAISYSGGTTYYADSVKGRFTISRDNAKNTVYLQMNSLKPEDTAVYYCNKGYRRYEDGATPGYGYWGQGTQVTVSS | high polyreactivity
7 | QVQLVESGGGLVQAGGSLRLSCAASGGTFRPNAMGWYRQAPGKERELVAAITRSGGSTYYADSVKGRFTISRDNAKNTVYLQMNSLKPEDTAVYYCARDLREWGQGTQVTVSS | low polyreactivity
8 | QVQLVESGGGLVQAGGSLRLSCAASGGTFRSNAMGWYRQAPGKERELVAAISKRGGSTHYADSVKGRFTISRDNSKNTVYLQMNSLKPEDTAVYYCNTYGWQEGDYWGQGTQVTVSS | high polyreactivity
9 | QVQLVESGGGLVQAGGSLRLSCAASGGTFRTYTMGWYRQAPGKERELVAAINFRGGSTYYADSVKGRFTISRDNAKNTVYLQMNSLKPEDTAVYYCATPLQQEGDWGQGTQVTVSS | high polyreactivity
10 | QVQLVESGGGLVQAGGSLRLSCAASGGTFSFNAMGWSRQAPGKEREVVAAITSDDGTNDADSVKGRFTISRDNAKNTVYLQMNSLKPEDTAVDYCAAESRFEGWGQGTQVTVSS | low polyreactivity
11 | QVQLVESGGGLVQAGGSLRLSCAASGGTFSKYAMGWYRQAPGKEREFVAAITVSGGGTYYADSVKGRFTISRDNAKNTVYLQMNSLKPEDTAVYYCAADLAWTASDYWGQGTQVTVSS | low polyreactivity
12 | QVQLVESGGGLVQAGGSLRLSCAASGGTFSPYAMGWYRQAPGKERELVAVIRSDVTTNYADSVKGRFTISRDNAKNTVYLQMNSLKPEDTAVYYCNVERHRVWDYQWREEDDYWGQGTQVTVSS | low polyreactivity
13 | QVQLVESGGGLVQAGGSLRLSCAASGGTFSQYAMGWYRQAPGKERELVATISYSGTSTYYADSVKGRFTISRDNEKNTVYLHMNSLKPEDTAVYDCNIRWRWYRSDYYSWGQGTQVTVSS | high polyreactivity
14 | QVQLVESGGGLVQAGGSLRLSCAASGGTFSRNVMGWYRQAPGTERELVAAISFSGGTTYYADSVKGRFTISRDNAKNTVYLQMISLKPEDTAVYYCAARPVNTVRPFDYWGQGTQVTVSS | high polyreactivity
15 | QVQLVESGGGLVQAGGSLRLSCAASGGTFSYYAMGWYRQAPGKGELVAAISSGGSTNYADSVKGRFTISRDNAKNTVYLQMNSLKPEDTAVYFCAARYRFWGPYNYWGQGTQVTVSS | high polyreactivity
16 | QVQLVESGGGLVQAGGSLRLSCAASGGTFSYYAMGWYRQARGKERELDAAISGNGDTTYYADSVKGRFTISRDNAKNTVYLQMNSLKPEDTAVYYCAADGWGFIVGIDYYPYGEGDYWGQGTQVTVSS | low polyreactivity
17 | QVQLVESGGGLVQAGGSLRLSCAASGGTFTYSPMGWDREATGTERELVAAITDGGSTYYAVSVKGRFTISRDNAKTTFYLQMNSLKPEDTAVYYCAVRVRHNSKNTFFPYSYGYWGQGTQVTVSS | low polyreactivity
18 | QVQLVESGGGLVQAGGSLRLSCAASGGTFVGNAMGWYRQAPGKERELVAAISTNSGSTYYADSVKGRFTISRDNAKNTVYLQMNSLKPEDPAVYYCATRNSSKRRGYYYWGQGTQVTVSS | high polyreactivity
19 | QVQLVESGGGLVQAGGSLRLSCAASGGTFVHYTMGWYRPAPGKERELVASIRRGGSTNYADSVKGRFTISRDNAKNTVYLQMNSLKPEDTAVYYCAKRVQHYRYYYWGQGSQVTVSS | low polyreactivity
20 | QVQLVESGGGLVQAGGSLRLSCAASGGTFVVYAMGWYRQAPGKERELVAAITWIGDSTYYADSVKGRFTISRDNAKNTVYLQMNSLKPEDTAVHYCNAEGWYYLTEYGYWGQGTQVTVSS | low polyreactivity
21 | QVQLVESGGGLVQAGGSLRLSCAASGGTFWAYTMGWYRQAPGKERELVATISFGTGNTYYADSVKGRFTISRDNAKNTVYLQMNSLKPEDTAVYYCAAQWPELTRSYVTVEVEYWGQGTQVTVSS | low polyreactivity
22 | QVQLVESGGGLVQAGGSLRLSCAASGGTFWTNAMGWYRQAPGKERELVARITSGGGTNYADSVKGRFTISRDNAKNTVYVQMNSRKPEDTAVYYCAAETIYYPVAQSYYSFEYWGQGTQVTVSS | low polyreactivity

Row | Sequence | polyreactivity (PSR sort gate)
23 | QVQLVESGGGLVQAGGSLRLSCAASGGTFWVYAMGWYRQAPGKERELVAAIRWRGGRTYYADSVKGRFTISRDNAKNTVYLQMNSLKPEDTAVYYCAATTWRSGRYNYWGQGTQVTVSA | high polyreactivity
24 | QVQLVESGGGLVQAGGSLRLSCAASGGTFWVYAMGWYRQAPGKERELVAAIRWRGGRTYYADSVKGRFTISRDNAKNTVYLQMNSLKPEDTEVYYCAATTWRSGRYNYWGQGTQVTVSS | high polyreactivity
25 | QVQLVESGGGLVQAGGSLRLSCAASGGTFWWYTMGWYRQAPGKERELVATITRGGSTNYADSVKGRFTISRDNAKNTVYLQMNSLKPEDTAVYYCAKRYRPYYSTYDYWGQGTQVTVSS | high polyreactivity
26 | QVQLVESGGGLVQAGGSLRLSCAASGGTFYRYAMGWYRQAPGIERELVAAISGGRGRTYYADSVKGRFTISRDNAKNTVYLQMNSLKPVDTAVYYCSNKPYGAVSGSDYDYWGQGTQVTVSS | high polyreactivity
27 | QVQLVESGGGLVQAGGSLRLSCAASGGTFYSYAMGWYRQAPGKEREFVAAITYGGGSTYYADSEKGRFTISRDNAKNSVYLQKNSLKPEDTAVYYCNARRYGSRLGERYYYWGQGTQVTVSS | high polyreactivity
28 | QVQLVESGGGLVQAGGSLRLSCAASGGTIISYAMGWYRQAPRKERELVAAISRGGSSTYYADSVKGRFTISRDNAKNTVYLQMNSLKPEDTAVYYCVQLTRSGPDLDSWGQGTQVTVSS | high polyreactivity
29 | QVQLVESGGGLVQAGGSLRLSCAASGGTIVWNAMGWNRQAPGKEREFVAAITSSGGSTYYADSVKGRFTISRDNAKNSVYLQMNSLKPEDTAVYYCNVDTHSSYEFNSWGQGTQVTVSS | low polyreactivity
30 | QVQLVESGGGLVQAGGSLRLSCAASGGTIYRNAMGWYRQAPGKEREMVASITRGGSTTYADSVKGRFTISRDNAKNTVYLQMNCLKPEATAVYYCNAPGQQRYDSWGQGTQVTVSS | high polyreactivity
31 | QVQLVESGGGLVQAGGSLRLSCAASGGTLFTNAMGWYRQAPGKERELVAAISWRGGRTYYADSVKGRFTISRDNAKNTVYLQMNSLKAEDTAVYYCAAASAAGYDYWGQGTQVTVSS | low polyreactivity
32 | QVQLVESGGGLVQAGGSLRLSCAASGGTLRGYAMGWYRQAPGKERELVAAISKRSGSTYYADSVKGRFTISRDNAKNTVYLQMNSLKPEDTAVYYCNTRGLTTEGHYYWGQGTQVTVSS | high polyreactivity
33 | QVQLVESGGGLVQAGGSLRLSCAASGGTLRYYAMGGYRQAPGKERELVAVITSSAGRTYYADSVKGRFTISRDNAKNTVYLQMNSLKPEDTAVYYCPAYDAYSPYQALYDYWGQGTQVTVSS | low polyreactivity
34 | QVQLVESGGGLVQAGGSLRLSCAASGGTLYRNVMGWYRQAPGKERELVAAISKSGGSTYYADSVKGRFTISRDNAKNTFYLQMNSLKPEDTAVYYCDVSHNRGYDSWGQGTQVTVSS | high polyreactivity
35 | QVQLVESGGGLVQAGGSLRLSCAASGGTLYRYAMGWYRQAPGKERELVAGISSSGGRTYNADSVKGRFTISRDNAKNTVYLQMNSLIPEDTAVYYCAKYWVSSYDYWGQGTQVTVSS | high polyreactivity
36 | QVQLVESGGGLVQAGGSLRLSCAASGGTSAVYAMGWYRQAPGKERELVAAISSDGSTNYADSVKGRFTISRDNAKNTVYLQMNSLKPEDTAVYYCAVDFSTYEWSGHITRASGSYDYWGQGTQVTVSS | low polyreactivity
37 | QVQLVESGGGLVQAGGSLRLSCAASGHIFFYYTMGWYRQAPGKERELVAGITIGGSTNYADSVKGRFTISRDNAKNTVYLKMNSLKPEDTAVYYCNVVKYVYIYSYWEYYYWGQGTQVTVSS | low polyreactivity
38 | QVQLVESGGGLVQAGGSLRLSCAASGHIFLHNAMGWYRQAPGKERELVAGITYSDTSTYADSVKGRFTISRDNAKNTVYLQMNSLKPEDTAVYYCEYYYWGQGTQVTVSS | low polyreactivity
39 | QVQLVESGGGLVQAGGSLRLSCAASGHTFSISAMGWYRQAPGKERELVAAISLSGGSTDYADSVKGRFTISRDNAKNTVYLQMNSLKPEDTAVYYCAADVFTARRSYDYGGQGTQVTVSS | low polyreactivity
40 | QVQLVESGGGLVQAGGSLRLSCAASGIFLGYAMGWYRQAPGKERELVAAITSGDSTYYADSVKGRLTISRDNAKNTVYLQMNSLKPEDTAVYYCAKTRYSWPRVWYNYWGQGTQVTVSS | low polyreactivity
41 | QVQLVESGGGLVQAGGSLRLSCAASGIFRQNAMGWYRQAPGKERELVAGISQSGGSTYYADSVKGRFTISRDNAKNTVYLQMNSLKPEDTAVYYCAGVSIWGYDYWGQGTQVTVSS | low polyreactivity
42 | QVQLVESGGGLVQAGGSLRLSCAASGIFRRYAMGWYRQAPGKERELVAAISYSGGSTEYADSVKGRFTISRDNAKNTVYLQMNSLKPEDTAVYYCAAVNRPRPRRSDYWGQGTQVTVSS | high polyreactivity
43 | QVQLVESGGGLVQAGGSLRLSCAASGIFTNNAMGWYRQAPGKERELVAAITIRGGSTYYADSVKGRFTISRDNAKNTVYLQMNSLKPEDTAVYYCAARGLGYTDLRSVHMYYWGQGTQVTVSS | high polyreactivity
